This is an account of results in the nanobody polyreactivity screen of Harvey et al. (2022).

This series can be described thus: yeast display, Sf9 membrane polyspecificity reagent, FACS + sequencing; frameworks hold sequencing errors. In a few lines: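 Polyreactivity labels are assigned by the sorting gate from which each nanobody was recovered. The gates were low and high (top ~1%), set on anti-HA fluorescence for expression and streptavidin fluorescence for reagent binding. Before sorting, galactose-induced (36–48 hours) yeast display cells were stained for 1 hour at 4 °C with 10% biotinylated, detergent-solubilized Sf9 membrane reagent.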
As for “QVQLVESGGGLVQAGGSLRLSCAASGFTFPSYDMGWYRQAPGKERELVAAISWSGTSTYYADSVKGRFTISRDNAKNTVYLQMNSLKPEDTAVYYCNAQYSYLWGEYGYWGQGTQVTVSS”, the “polyreactivity (PSR sort gate)” value is reported as “high polyreactivity”.
For “QVQLVESGGGLVQAGGSLRLSCAASGFTFPVNAMGWYRQAPGKERELVAAIRWIGGDTYYADSVKGRFTISRDNAKNPVYLQMNSLKPEDTAVYYCAAEDTDDYSIWYEYWGQGTQVTVSS”, the “polyreactivity (PSR sort gate)” value is on record as “high polyreactivity”.
As for “QVQLVESGGGLVQAGGSLRLSCAASGFTFPVNTMGWYRQAPGKERELVAAISTSGAGTYYADSVKGRFTISRDNAKNTVYLQMNSLKPEDTAVYYCNADSQPGPYPGIRYDYWGQGTQVTVSS”, the entry is “high polyreactivity”; as for “QVQLVESGGGLVQAGGSLRLSCAASGFTFPVYAMGWYRQAPGKERELVAAISSGGRTDYADSVKGRFTISRDNAKNTVYLQMNSLKPEDTAVYYCNKARSDHDGRNDSWGQGTQVTVSS”, “high polyreactivity”.
As for “QVQLVESGGGLVQAGGSLRLSCAASGFTFPWYAKGWYRQAPGKERELVAAITSGSSTYYADSVKGRFTISRDNAKNTVYLQMNSLKPEVTAVYYCAKDGGWSRLHYNYWGQGTQVTVSS”, the entry is “high polyreactivity”; as for “QVQLVESGGGLVQAGGSLRLSCAASGFTFPWYAMGWYRQAPGKERELVAAISTSGGSTYYADSVKGRFTISRDNAKNTVYLQMNSLKPEDTAVYYCAVGRKFGRYRVPFVVPYEYWGQGTQVTVSS”, “high polyreactivity”.
As for “QVQLVESGGGLVQAGGSLRLSCAASGFTFPYAMGWYTQAPGKERELVAGISWSGGSTYYADSVKGRFTISRDNAKNTVYLQMNSLKPEDTAVYYCNKYVQSGGTYDYWGQGTQVTVSS”, the entry is “low polyreactivity”; as for “QVQLVESGGGLVQAGGSLRLSCAASGFTFPYYAMGLYRQAPGKERELVATISSGSSTNYADSVKGRFTISRDNAKNTVYLQMNSLKPEDTAVYYCAAVRSGYSGTDGQYSKYGYWGQGTQVTVSS”, “high polyreactivity”.
Consider “QVQLVESGGGLVQAGGSLRLSCAASGFTFPYYAMGWYRQAPGKERELVAAINSVGSTYYADSVKGRFTISRDNAKNTVYLQMNSLKPEDTAVYYCNKRPSHWRHYIMDYWGQGTQVTVSS”, for which the “polyreactivity (PSR sort gate)” value is given as “high polyreactivity”.
The same measure for “QVQLVESGGGLVQAGGSLRLSCAASGFTFPYYAMGWYRQAPGKERELVAAITSSGGSTYYADSVKGRFTISRDNAKNTVYLQMNSLKPEDTAVYYCAVDAYYYKWYDYWGQGTQVTVSS”: “high polyreactivity”.
As for “QVQLVESGGGLVQAGGSLRLSCAASGFTFPYYAMGWYRQAPGKERELVAGISWDGDSTYYADSVKGRFTISRDNAKNTVYLQMNSLKPEDTAVYYCAAGYITYYYGEYGYWGQGTQVTVSS”, the entry is “low polyreactivity”; as for “QVQLVESGGGLVQAGGSLRLSCAASGFTFQEYAMGWYRQAPGKERELVAAITSGTTTNYADSVKGRFTISRDNAKNTVYFQMNSLKPEDTAVYYCNVRSQSGSYRVYEYDYWGQGTQVTVSS”, “low polyreactivity”; as for “QVQLVESGGGLVQAGGSLRLSCAASGFTFQPNAMGWYRQAPGKERELVAAITWSTGRTYYADSVKGRFTISRDNAKNTVYLQMNSLKPEDTAVYYCNKRKNLLHSFEYDYWGQGTQVTVSS”, “low polyreactivity”.
The same measure for “QVQLVESGGGLVQAGGSLRLSCAASGFTFQTYAMGWYRQEPGKERELVATIRTRGGSTSYADSVKGRFTISRDNAKNTVYLQMNSLKPEDTAVYYCNGRLSYRSAWYYGGDRYDYWGQGTQVTVSS”: “high polyreactivity”; for “QVQLVESGGGLVQAGGSLRLSCAASGFTFQYYAMGWYRQAPGKERELVAAISWSGASTYYADSVKGRFTISRDNAKNTVYLQMNSLKPEDTAVYYSAAKYYRDRDWGQGTQVTVSS”: “high polyreactivity”.
For the sequence “QVQLVESGGGLVQAGGSLRLSCAASGFTFQYYAMGWYRQAPGKERELVAAITRGDSTNYADSVKGRFTISRDNAKNTVYLQMNSLKPEDTAVYYCAKSVRYPASDYWGQGTQVTVSS”, the “polyreactivity (PSR sort gate)” value is given as “low polyreactivity”.
As for “QVQLVESGGGLVQAGGSLRLSCAASGFTFQYYAMGWYRQAPGKERELVAVISRSGGRTYYADSVKGRFTISRDNGKNTVYLQMISLKPEDTAVYYCNAQSYIPTTETYDYWGQGTQVTVSS”, the entry is “high polyreactivity”.
The same measure for “QVQLVESGGGLVQAGGSLRLSCAASGFTFRFYAMGWYRQAPGKERELVAGISSSGGTTYYADSVKGRFTISRDNAKNTVYLQMNSLKPEDTAVYYCNRRFLPAEQYTKKYYYWGQGTQVTVSS”: “high polyreactivity”.
As for “QVQLVESGGGLVQAGGSLRLSCAASGFTFRFYAMGWYRQAPGKERELVATISSRGGRTYYADSVKGRFTISRDNAKNTVYLQLNSLKPEDTAVYYCAADQKSQYQGNYWGQGTQVTVSS”, the entry is “high polyreactivity”; as for “QVQLVESGGGLVQAGGSLRLSCAASGFTFRFYVMVWYRLAPGKERELVAAITASGGTTYYADSVKGRFTISRDNAKNSVYLQMNSLKPEDTAVYYCNALYYYLYGYDYWGQGTQVTVSS”, “high polyreactivity”; as for “QVQLVESGGGLVQAGGSLRLSCAASGFTFRGYAMGWYRQAPGKERELVAAITWSGGSTYYADSVKGRFTISRDNAKYTVYLQMNSLKPEDTAVYYCNAYYASGYRQYDYWGQGTQVTVSS”, “high polyreactivity”.
For the sequence “QVQLVESGGGLVQAGGSLRLSCAASGFTFRGYDMGWYRQAPGKERELVAAISGGVSTNYADSVKGRFTISRDNAKNTVYLQMNSLKPEDTAVYYCAAVPVSAGYSSIFDYWGQGTQVTVSS”, the “polyreactivity (PSR sort gate)” value was “low polyreactivity”.
For the sequence “QVQLVESGGGLVQAGGSLRLSCAASGFTFRGYVMGWYRQAPGKERELVAAITNIGTSTYYADSVKGRFTISRDNAKNTVYLQMNSLKPEDTAVYYCAARLRTKFYYWGQGTLVTVSS”, the “polyreactivity (PSR sort gate)” value was “low polyreactivity”.
The same measure for “QVQLVESGGGLVQAGGSLRLSCAASGFTFRHYTMGWYRQAPGKERELVAAISSSGVTTYYADSVKGRFTISRDNAKNTVYLQMISLKPEDTAVYYCADRPYYYYVDYDYWGLGTQVTVSS”: “high polyreactivity”; for “QVQLVESGGGLVQAGGSLRLSCAASGFTFRIYAMGWYRQAPGKERELVATISWSGTSTYYADSVKGRFTISRDNAKNTVYLQMNSLKPEDTAVYYCAKDGVSFYWLNKYYYWGQGTQVTVSS”: “low polyreactivity”; for “QVQLVESGGGLVQAGGSLRLSCAASGFTFRKNAMGWYRQAPGKERELVAAIRGSAGSTYYADSVKGRFTISRDNAKNTVYLQMNSLKPEDTAVSYCATGGYPSLWDGYGYWGQGTQVTVSS”: “low polyreactivity”.
Consider “QVQLVESGGGLVQAGGSLRLSCAASGFTFRKNAMGWYRQAPGKERELVAAISSGGGRTYYADSVKGRFTISRDNAKNTVYLQMNSLKPEDTAVYYCNAVRVVRLTFQDWISMDYWGQGTQVTVSS”, for which the “polyreactivity (PSR sort gate)” value was “high polyreactivity”.
As for “QVQLVESGGGLVQAGGSLRLSCAASGFTFRLYAMGWYRPAPGKERELVARISSGGSTHYADSVKGRFTISRDNAKNTVSLQMNSLKPEDTAVYYCAAGWGYWRSYGSWGQGTQVTVSS”, the “polyreactivity (PSR sort gate)” value is reported as “high polyreactivity”.
In the case of “QVQLVESGGGLVQAGGSLRLSCAASGFTFRLYVMGWYRQAPGKERELVAAISSRGGSTYYADSVKGRFTISRDNAKNTVYLQMNSLKPEDTAVYYCAADRPRGRETVDYWGQGTQVTVSS”, the “polyreactivity (PSR sort gate)” value is “high polyreactivity”.
As for “QVQLVESGGGLVQAGGSLRLSCAASGFTFRNYAMGWYIQAPGKERELVATISWSGGSTYYADSVKGRFTISRDNAKNTVYLQMNSLKPEDTAVYYCAAKTILWKYYPYYYVTYDYWGQGTQVTVSS”, the entry is “high polyreactivity”; as for “QVQLVESGGGLVQAGGSLRLSCAASGFTFRQNAMGWYRQAPGNERELVAVITKSAGSTYYADSVKGRFTISRDNAKNTVYLQMNSLKPEATAVYYCNKRQRFVSSCRRSQGIGWEDDYWGQGTQVTVSS”, “low polyreactivity”.
The same measure for “QVQLVESGGGLVQAGGSLRLSCAASGFTFRRNAMGWYRQAPGKERELVAAINVRDGSTYYADSVKGRFTISRDNAKNTVYLQMNSLKPEDTAVYYCAAEFFQGYYWYYYWGQGTQVTVSS”: “high polyreactivity”; for “QVQLVESGGGLVQAGGSLRLSCAASGFTFRRNAMGWYRQAPGKERELVAAISSSGGSTSYADSVKGRFTISRDNAKNTVYLQMNSLKPEDTAVYYCAVEVASYDRRPSEYYWGQGTQVTVSS”: “high polyreactivity”; for “QVQLVESGGGLVQAGGSLRLSCAASGFTFRRNAMGWYRQAPGKERELVASITINGGSTTYADSVKGRFTISRDNAKNTVYLQMNSLKPEDTAVYYCNKRYRTYRSVPQYEYWGQGTQVTVSS”: “high polyreactivity”.
The same measure for “QVQLVESGGGLVQAGGSLRLSCAASGFTFRRYAMGWYRPARGKERELVAAIRQSGGSTYADSVKGRFTISRDNAKNTVYLQMNSLKPEDTAVYYCNAGVRAVNRKYDYWGQGTQVTVSS”: “high polyreactivity”; for “QVQLVESGGGLVQAGGSLRLSCAASGFTFRRYAMGWYRQAPGKERELVAAISASGGNTYYADSVKGRFTISRDNAKNTVYLQMNSLKPEDTAVYYCATDWTVRYDYWGQGTQVTVSS”: “high polyreactivity”; for “QVQLVESGGGLVQAGGSLRLSCAASGFTFRSYAMGWYRQAPGKEREFVAAINGRSGSTYADSVKGRFTISRDNAKNTVYLQMNSLNPEDTAVYYCAAGQRHKNSNRPDNYWGQGSQVTVSS”: “high polyreactivity”.
In the case of “QVQLVESGGGLVQAGGSLRLSCAASGFTFRVNAMGWYRQAPGKERELVAASSSGGRTYYADSVKGRFTISRDNAKNTVYLQMNSLKPEDTAVYYCNAGRVRHGNDYWGQGTQVTVSS”, the “polyreactivity (PSR sort gate)” value is on record as “high polyreactivity”.
As for “QVQLVESGGGLVQAGGSLRLSCAASGFTFRVYAMGGYRPAPGKERELVAAITSGSSTTYADSVKGRFTISRDNAKNTVYLQMNSLKPEDTAVYYCNARRRGRVTGSYGYWGQGTQVTVSS”, the entry is “high polyreactivity”; as for “QVQLVESGGGLVQAGGSLRLSCAASGFTFRVYAMGRYRQAPGKERELVAVISGTGGRTYYADSVKGRFTISRDNAKNTVYLQMNSLKPEDTAVYYCARRGRPPAIYDYWGQGTQVTVSS”, “high polyreactivity”.
Take “QVQLVESGGGLVQAGGSLRLSCAASGFTFRVYAMGWYRQAPGKERELVAAITQRGGSTYYADSVKGRFTISRDNSKNTVYLQMNRLNTEDTAVYYCNKFAGQPTYDYWGQGTQVTVSS”: the “polyreactivity (PSR sort gate)” value is reported as “high polyreactivity”.
